Blank lines part the entries; values can stand above or below the binder they belong to. Bridges are numbered along the chain shown (N, C = ends). DBX = not defined here
What was measured:
[1] = target: T1, biotinylated B7-H3 (B7-H3b), immune checkpoint protein; assay: JP5 alanine mutant library in mRNA display: background screen on beads, then selection on biotinylated B7-H3; NGS, enrichment in the selection over the input library
T1 construct: also called biotin immobilized B7-H3; streptavidin immobilized B7-H3
T1 sequence (Q5ZPR3 whole entry, species assumed, looked up): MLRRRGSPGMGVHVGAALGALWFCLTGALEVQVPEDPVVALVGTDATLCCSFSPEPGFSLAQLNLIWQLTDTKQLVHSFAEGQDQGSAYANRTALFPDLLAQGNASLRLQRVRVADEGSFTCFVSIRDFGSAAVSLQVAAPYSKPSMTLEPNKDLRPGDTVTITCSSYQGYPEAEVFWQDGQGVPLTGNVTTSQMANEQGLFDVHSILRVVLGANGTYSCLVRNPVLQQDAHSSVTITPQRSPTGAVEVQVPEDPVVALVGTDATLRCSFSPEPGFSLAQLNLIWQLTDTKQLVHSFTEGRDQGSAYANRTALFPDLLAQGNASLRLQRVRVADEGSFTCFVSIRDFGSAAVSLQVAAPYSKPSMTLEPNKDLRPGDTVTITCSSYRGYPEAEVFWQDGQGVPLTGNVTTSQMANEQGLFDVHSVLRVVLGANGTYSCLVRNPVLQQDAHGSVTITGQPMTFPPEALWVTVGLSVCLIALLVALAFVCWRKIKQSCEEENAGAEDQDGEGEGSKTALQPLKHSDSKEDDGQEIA
From the text: FIGS. 17A-17B. JP5 alanine mutant library design and screen. (FIG. 17A) Each library member with the parent JP5 sequence on the top. JP5 was mutated at each residue to an Alanine. All library members, and JP5, were screened first against background components (magnetic beads) to remove nonspecific binders and then against biotinylated B7-H3 (see FIG. 14B). […] A value of >1 indicates stronger enrichment in the selection, whereas a value<1 indicates a stronger enrichment in the input library.
A single variant library of JP5 (FIG. 13A) and JP3 (FIG. 14A) was carried out. Each residue was mutated to include potentially 20/20 canonical amino acids. All library members were screened first against background components (magnetic beads) to remove nonspecific binders and then against biotinylated B7-H3 (FIG. 13B). […] The recovered material from the B7-H3 selection of JP5 and JP3 was sent for NGS (FIG. 15 and FIG. 16, respectively). In addition, JP5 was subjected to an alanine mutant scan (FIG. 17A). All library members were screened first against background components (magnetic beads) to remove nonspecific binders and then against biotinylated B7-H3 (see FIG. 13B). […] The selected AMs will be tested with surface plasmon resonance (SPR) to assess binding affinity.

human B7-H3 (hB7-H3) [2] = target: T2, human B7-H3 (hB7-H3) (human, UniProt Q5ZPR3 29-461, limits assumed); assay: SPR; hB7-H3 as ligand on the chip, peptide as analyte
T2 construct: The construct is not described
T2 sequence (looked up): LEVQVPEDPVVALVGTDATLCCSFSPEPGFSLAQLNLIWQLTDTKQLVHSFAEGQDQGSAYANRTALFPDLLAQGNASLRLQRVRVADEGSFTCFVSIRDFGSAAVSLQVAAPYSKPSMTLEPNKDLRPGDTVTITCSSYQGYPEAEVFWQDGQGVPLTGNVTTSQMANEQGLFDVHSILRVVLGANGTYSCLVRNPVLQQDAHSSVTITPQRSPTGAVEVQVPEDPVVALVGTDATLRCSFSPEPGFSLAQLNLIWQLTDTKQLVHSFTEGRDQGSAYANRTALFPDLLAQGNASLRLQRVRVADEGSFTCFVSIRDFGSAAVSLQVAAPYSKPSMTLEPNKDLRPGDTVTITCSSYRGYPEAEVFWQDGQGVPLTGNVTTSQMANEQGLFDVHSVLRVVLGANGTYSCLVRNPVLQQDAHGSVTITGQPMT

murine B7-H3 (mB7-H3) [3] = target: T3, murine B7-H3 (mB7-H3) (murine, UniProt Q8VE98 29-244, limits assumed); assay: SPR
T3 construct: The construct is not described
T3 sequence (looked up): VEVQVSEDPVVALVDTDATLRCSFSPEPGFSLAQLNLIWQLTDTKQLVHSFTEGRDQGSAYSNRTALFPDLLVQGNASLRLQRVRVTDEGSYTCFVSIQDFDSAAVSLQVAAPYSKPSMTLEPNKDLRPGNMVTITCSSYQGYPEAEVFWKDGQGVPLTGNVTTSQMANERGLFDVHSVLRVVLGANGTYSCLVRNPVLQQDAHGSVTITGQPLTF

human B7-H3 (hB7-H3) [4] = target: T2, human B7-H3 (hB7-H3); assay: SPR
murine B7-H3 (mB7-H3) [5] = target: T3, murine B7-H3 (mB7-H3); assay: SPR; mB7-H3 as ligand on the chip, peptide as analyte
human B7-H3 (hB7-H3) [6] = target: T2, human B7-H3 (hB7-H3); assay: SPR; reduced (no disulfide bridge)
human B7-H3 (hB7-H3) [7] = target: T2, human B7-H3 (hB7-H3); assay: SPR; oxidized (with disulfide bridge)
[8] = target: T1, biotinylated B7-H3 (B7-H3b), immune …; assay: SPR, Biacore 8K single-cycle kinetics, biotinylated B7-H3 on NeutrAvidin chip, peptide as analyte
Protocol: Surface Plasmon Resonance (SPR) analysis. Binding kinetics between our selected peptide (and variants) and biotinylated B7-H3 (B7-H3b) were assessed through SPR analysis using a BIACORE 8K SPR system (GE Healthcare). The running buffer was 1×PBS pH7.5, 0.05% TWEEN® 20 and all analysis was carried out at 25° C. B7-H3b was loaded onto a NeutrAvidin SPR Chip (Series S Sensor Chip NA, 29407997, Cytiva) at a flow rate of […] to a surface density of 1000-1500 response units. Analyte was then injected over a series of five concentrations and quantified by BIACORE single-cycle kinetics method. For our selected peptide (B1.1) and the Met9Nle variant a range of 7.5, 15, 30, 60, 120 nM were run. For the linear variant concentrations of 50, 100, 200, 400, 800 nM were run. Binding sonograms were generated using a standard 1:1 binding kinetics model and kinetics constants determined using standard BIACORE evaluation software.

[9] = target: T1, biotinylated B7-H3 (B7-H3b), immune …; assay: SPR (BIACORE 8K, single-cycle kinetics, 1:1 fit); biotinylated B7-H3 on a NeutrAvidin chip, peptide as analyte at 7.5-120 nM
From the text: FIGS. 4A-4G. (FIG. 4A) Selection schematic detailing the selection process for identifying binders against B7-H3. (FIG. 4B) qPCR results of the mTG mediated B7-H3 selection. (FIG. 4C) B7-H3 selection results and complete NGS analysis of B7-H3 hits. (FIG. 4D) NGS data of the selection hits. […] Arrow indicates the peptide pursued for binding validation. (FIG. 4E) EIC ([M+2], 948.91 m/z) traces corresponding to the product of the mTG reaction with linear B1.1 peptide and the synthetic lactam, disulfide peptide. (FIG. 4F) Surface Plasmon Resonance (SPR) analysis of the selected peptide (B1.1), the Met9Nle variant, and the linear variant. […] The selected B1.1 and the Met9Nle variant were analyzed at analyte concentrations of 7.5, 15, 30, 60, 120 nM. The linear variant was analyzed at analyte concentrations of 50, 100, 200, 400, 800 nM. […] (FIG. 4G) Individual SPR curves. Fitted curve and raw data are shown.
Surface Plasmon Resonance (SPR) analysis. Binding kinetics between our selected peptide (and variants) and biotinylated B7-H3 (B7-H3b) were assessed through SPR analysis using a BIACORE 8K SPR system (GE Healthcare). […] Analyte was then injected over a series of five concentrations and quantified by BIACORE single-cycle kinetics method. […] Binding sonograms were generated using a standard 1:1 binding kinetics model and kinetics constants determined using standard BIACORE evaluation software.

B1: AM4 (peptide)
peptide: Ac-CWTIADINGTRC-NH2
modifications: bridge 1-12; also: bracket C1-C12, bond type not given here
notes: Member of the JP5 alanine mutant library; also called JP5 alanine mutant 4
SELECTION/INPUT [1]: 0.58

B3: AM1 (peptide)
peptide: Ac-CATIRDINGTRC-NH2
modifications: bridge 1-12; also: bracket C1-C12, bond type not given here
notes: Member of the JP5 alanine mutant library; also called JP5 alanine mutant 1
SELECTION/INPUT [1]: 0.33

B4: AM2 (peptide)
peptide: Ac-CWAIRDINGTRC-NH2
modifications: bridge 1-12; also: bracket C1-C12, bond type not given here
notes: Member of the JP5 alanine mutant library; also called JP5 alanine mutant 2
SELECTION/INPUT [1]: 1.4

B5: AM5 (peptide)
peptide: Ac-CWTIRAINGTRC-NH2
modifications: bridge 1-12; also: bracket C1-C12, bond type not given here
notes: Member of the JP5 alanine mutant library; also called JP5 alanine mutant 5
SELECTION/INPUT [1]: 0.411

B7: AM3 (peptide)
peptide: Ac-CWTARDINGTRC-NH2
modifications: bridge 1-12; also: bracket C1-C12, bond type not given here
notes: Member of the JP5 alanine mutant library; also called JP5 alanine mutant 3
SELECTION/INPUT [1]: 0.309

B12: B1.1, selected cyclic, disulfide peptide (bicyclic: lactam and disulfide), synthetic, without the N-terminal methionine (peptide)
peptide: WALQLCHSMFYTCKSG
modifications: N-terminal acetylation (ac); lactam (isopeptide) bridge Q4-K14; disulfide bond C6-C13
notes: Made by solid phase synthesis on Rink Amide resin; also called Selected B1.1; oxidized B1.1 (with disulfide bridge)
Kd (human B7-H3 (hB7-H3) [7]): 105 nM
koff (human B7-H3 (hB7-H3) [2]): 0.0267 s⁻¹
kon (human B7-H3 (hB7-H3) [2]): 253000 M⁻¹ s⁻¹
Kd [8]: 43.5 nM
Kd (murine B7-H3 (mB7-H3) [5]): 161 nM
koff (murine B7-H3 (mB7-H3) [5]): 0.0176 s⁻¹
kon (murine B7-H3 (mB7-H3) [5]): 109000 M⁻¹ s⁻¹
koff [9]: 0.00674 s⁻¹
kon [9]: 155000 M⁻¹ s⁻¹

The remaining lines, values ahead:

SELECTION/INPUT [1]: 1.99
B2: AM6 (peptide)
peptide: Ac-CWTIRDANGTRC-NH2
modifications: bridge 1-12; also: bracket C1-C12, bond type not given here
notes: Member of the JP5 alanine mutant library; also called JP5 alanine mutant 6

SELECTION/INPUT [1]: 1.53
B6: AM7 (peptide)
peptide: Ac-CWTIRDIAGTRC-NH2
modifications: bridge 1-12; also: bracket C1-C12, bond type not given here
notes: Member of the JP5 alanine mutant library; also called JP5 alanine mutant 7

koff (human B7-H3 (hB7-H3) [2]): 0.0966 s⁻¹
kon (human B7-H3 (hB7-H3) [2]): 125000 M⁻¹ s⁻¹
Kd (murine B7-H3 (mB7-H3) [3]): 591 nM
Kd (human B7-H3 (hB7-H3) [4]): 772 nM
koff (murine B7-H3 (mB7-H3) [5]): 0.0605 s⁻¹
kon (murine B7-H3 (mB7-H3) [5]): 102000 M⁻¹ s⁻¹
Binder: Ac-CWTIRDINGTRCG-NH2 (linker 1-12 via DBX; reading uncertain, also called JP5 variant) [JP5, thioether (dibromoxylene) linked macrocyclic peptide from the DBX-mediated B7-H3 selection]

SELECTION/INPUT [1]: 0.422
B8: AM9 (peptide)
peptide: Ac-CWTIRDINGARC-NH2
modifications: bridge 1-12; also: bracket C1-C12, bond type not given here
notes: Member of the JP5 alanine mutant library; also called JP5 alanine mutant 9

koff (human B7-H3 (hB7-H3) [2]): 14.7 s⁻¹
kon (human B7-H3 (hB7-H3) [2]): 7.44e+07 M⁻¹ s⁻¹
Kd (human B7-H3 (hB7-H3) [6]): 198 nM
B9: reduced B1.1 (no disulfide bridge) (peptide)
peptide: WALQLCHSMFYTCKSG
modifications: no disulfide bridge (reduced cysteines C6 and C13); lactam bridge Q4-K14 and N-terminal acetylation as in B1.1
notes: also called reduced form of B1.1

SELECTION/INPUT [1]: 1.34
B10: AM10 (peptide)
peptide: Ac-CWTIRDINGTAC-NH2
modifications: bridge 1-12; also: bracket C1-C12, bond type not given here
notes: Member of the JP5 alanine mutant library; also called JP5 alanine mutant 10

SELECTION/INPUT [1]: 0.338
B11: AM8 (peptide)
peptide: Ac-CWTIRDINATRC-NH2
modifications: bridge 1-12; also: bracket C1-C12, bond type not given here
notes: Member of the JP5 alanine mutant library; also called JP5 alanine mutant 8

— patent US20260191974A1 (UNIVERSITY OF NORTH CAROLINA AT CHAPEL HILL, published 2026)
